In the supplement of paper PMC10201428:
± gives the standard deviation of the averaged measurements.

What was measured:
[1] = system: VchCAST RNA-guided transposition machinery (E. coli BL21(DE3) host, lacZ target); experiment: relative integration efficiency (T-RL orientation) vs wild-type transposon end (log2 (normalized fold change)); transposon end mutated: right end (5 bp flank + 75 bp right end); higher = more efficient transposition
Outline: (§1)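 Relative integration efficiency is a fold change of output over input barcode abundance, normalised to reference barcodes and log-transformed. Input plasmids and genomic integration junctions were PCR-amplified and Illumina-sequenced from E. coli BL21(DE3) co-transformed with a T7-driven effector plasmid and pUC57 donor pools of 1549 left-end or 1849 right-end transposon variants. Plating was done with 0.1 mM IPTG at 37°C for 18 h, with two biological output replicates and four reference barcodes.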

[2] = system: VchCAST RNA-guided transposition machinery (E. coli BL21(DE3) host, lacZ target); experiment: relative integration efficiency (T-LR orientation) vs wild-type transposon end (log2 (normalized fold change)); transposon end mutated: right end (5 bp flank + 75 bp right end); higher = more efficient transposition
Outline: as §1

Sequence	relative integration efficiency (log2) [1]	relative integration efficiency (log2) [2]
ACATTTGTTGATACAACCATAAAATGATAATTCCACCCATAAATTGATAATTCTCACACCCATAAATTGATATTGACTCTGATCATAGTCAGACCAACATTGCTACGACCCGTATTCGCACCGACAC	-0.563 ± 0.1	-0.163 ± 0.16
ACATTTGTTGATACAACCATAAAATGATAATTACACCCATTAATTGATAATAATGACACCGAATTTAACTATAACGCTCTGATCATAGTCAGACCAACATTGCTACGACCCGTATTCGCACCGACAC	-1.51 ± 0.32	2.24 ± 0.16
ACATTTGTTGATACAACCATAAAATGATAATTACACCCATAAATTGATAATTATCACACCGTATAATTGATATTGCCTCTGATCATAGTCAGACCAACATTGCTACGACCCGTATTCGCACCGACAC	-0.648 ± 0.21	2.25 ± 0.06
ACATTTGTTGATACAACCATAAAATGATAATTACACCCATAAATTGATAATTATCACACCCATAAATTGATATTGCCTCTGATCAATATGTAACCAAAAGTAAAATAGTCAGACCAAGCACCGACAC	-0.295 ± 0.29	0.023 ± 0.042
ACATTTGTTGATACAACCATAAAATGATAATTACCCCCATAAATTGATAATTATCCCACCCCATTTAACTATAACGCTCTGATCATAGTCAGACCAACATTGCTACGACCCGTATTCGCACCGACAC	-1.32 ± 0.25	1.82 ± 0.11
ACATTTGTTGATACAACCATAAGTTGATATTTTCAACCATATATTGATATCTCTCACAACCATAAGTTGATATTTTCTCTGATCATAGTCAGACCAACATTGCTACGACCCGTATTCGCACCGACAC	-0.118 ± 0.16	-0.0553 ± 0.32
ACATTTGTTGATACAACCATAAGTTGATATTTTCACCCATAAATTGATATTGCTCACAACCATAAGTTGATATTTTCTCTGATCATAGTCAGACCAACATTGCTACGACCCGTATTCGCACCGACAC	-0.281 ± 0.16	-0.109 ± 0.43
ACATTTGTTGATACAACCATAAAATGATAATTACAACCATAAAATGATAATTATGATAATTATCATTTTATGGTTGCTCTGATCATAGTCAGACCAACATTGCTACGACCCGTATTCGCACCGACAC	0.301 ± 0.039	1.99 ± 0.068
ACATTTGTTGATACAACCATAAAATGATCATTACACCCATAAATTGATAATTATCACACCCCATTTAACTATAACGCTCTGATCATAGTCAGACCAACATTGCTACGACCCGTATTCGCACCGACAC	-2.04 ± 0.29	1.74 ± 0.078
ACATTTGTTGATACAACCATAAAGTGATATTTACAACCATAAGTTGATATTTTTCACAACCATAAGTTGATATTTTCTCTGATCATAGTCAGACCAACATTGCTACGACCCGTATTCGCACCGACAC	0.36 ± 0.12	0.284 ± 0.16
ACATTTGTTGATACAACCATAAAATGATAATTACACCCATAAATTGATAATTATCAGTCCCATAAATTGATATTGCCTCTGATCATAGTCAGACCAACATTGCTACGACCCGTATTCGCACCGACAC	-0.441 ± 0.031	1.51 ± 0.031
ACATTTGTCGATACAACCATAAAATGATAATTACCACCCCTACATTGATAATTATCACACCCATTTAACTATAACGCTCTGATCATAGTCAGACCAACATTGCTACGACCCGTATTCGCACCGACAC	-3.06 ± 0.23	-0.393 ± 0.058
ACATTTGTTGATACAACCATAAAATGATTATTACACCCATAAATTGATTATTATCACACCCATAAATTGATTTTGCCTCTGATCATAGTCAGACCAACATTGCTACGACCCGTATTCGCACCGACAC	-0.91 ± 0.14	0.0804 ± 0.34
ACATTTGTTGATACAACCATCCCCTGATAATTACACCCATCCCGTGATAATTATCACACCCATCCCGTGATATTGCCTCTGATCATAGTCAGACCAACATTGCTACGACCCGTATTCGCACCGACAC	-5.99 ± 0.12	-3.86 ± 0.83
ACATTTGTTGATACAACCATAAAATCATTATTACACCCATTAATTGATAATTATCACACCCAATTTAACTATAACGCTCTGATCATAGTCAGACCAACATTGCTACGACCCGTATTCGCACCGACAC	-3.73 ± 0.33	0.129 ± 0.18
